{
  "source": "patent US6900050",
  "about": "(ROCKEFELLER UNIVERSITY, dated 2005)",
  "key": {"[1]": {"molecular_target": "T1, GST alone (control) (UniProt P08515 1-218 = GST)", "T1 construct": "Control for the glutathione-Sepharose coprecipitations; also called GST proteins", "T1 sequence (P08515 whole entry)": "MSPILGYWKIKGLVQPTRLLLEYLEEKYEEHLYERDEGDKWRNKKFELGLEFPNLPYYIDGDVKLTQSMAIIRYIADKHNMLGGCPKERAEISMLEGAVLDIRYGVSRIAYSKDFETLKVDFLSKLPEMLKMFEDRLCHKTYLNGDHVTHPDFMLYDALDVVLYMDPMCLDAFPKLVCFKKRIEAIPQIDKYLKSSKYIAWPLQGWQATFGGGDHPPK", "assay": "glutathione-Sepharose coprecipitation from 293 cells, Western blot (control)", "description": "Cell lysates were precipitated with glutathione-Sepharose beads, and analyzed by Western blot analysis with anti-TRAF1 or anti-TRAF2 antibodies. The 293 cells were transfected with various combinations of expression vectors and thirty-six hours after transfection, cells were harvested in phosphate-buffered saline/1 mM phenylmethylsulfonyl fluoride, pelleted, and lysed in lysis buffer (20 mM Hepes (pH 7.9), 100 mM KCl, 300 mM NaCl, 10 mM EDTA, 0.1% NP-40, plus protease inhibitors). After lysis, aliquots of cell lysates were incubated with glutathione-Sepharose (Pharmacia) for 2 hr at 4° C. […]\nHowever, since the interaction of TRAFs with the cognate members of the TNFR superfamily is mediated through the TRAF-C domain rather than the entire TRAF domain, it was-important to determine whether TRIP can indirectly interact with the receptors through TRAFs. […] Cell lysates were precipitated with glutathione-Sepharose beads, and analyzed on Western blots with anti-HA, anti-TRAF1, and anti-TRAF2 antibodies. […]\nAliquots of cell lysates were subjected for purification with glutathione-Sepharose beads as described in Experimental Procedures. Proteins coprecipitated with GST-fusion proteins were analyzed by Western analysis with an anti-HA mAb (12CA5), and anti-TRAF1- or anti-TRAF2-polyclonal antibodies."}, "[2]": {"molecular_target": "T2, LexA DNA binding domain-TRAF2 fusion protein (UniProt P0A7C2 1-202; P39429 1-501)", "T2 construct": "also called LexA-TRAF2", "T2 sequence (looked up)": "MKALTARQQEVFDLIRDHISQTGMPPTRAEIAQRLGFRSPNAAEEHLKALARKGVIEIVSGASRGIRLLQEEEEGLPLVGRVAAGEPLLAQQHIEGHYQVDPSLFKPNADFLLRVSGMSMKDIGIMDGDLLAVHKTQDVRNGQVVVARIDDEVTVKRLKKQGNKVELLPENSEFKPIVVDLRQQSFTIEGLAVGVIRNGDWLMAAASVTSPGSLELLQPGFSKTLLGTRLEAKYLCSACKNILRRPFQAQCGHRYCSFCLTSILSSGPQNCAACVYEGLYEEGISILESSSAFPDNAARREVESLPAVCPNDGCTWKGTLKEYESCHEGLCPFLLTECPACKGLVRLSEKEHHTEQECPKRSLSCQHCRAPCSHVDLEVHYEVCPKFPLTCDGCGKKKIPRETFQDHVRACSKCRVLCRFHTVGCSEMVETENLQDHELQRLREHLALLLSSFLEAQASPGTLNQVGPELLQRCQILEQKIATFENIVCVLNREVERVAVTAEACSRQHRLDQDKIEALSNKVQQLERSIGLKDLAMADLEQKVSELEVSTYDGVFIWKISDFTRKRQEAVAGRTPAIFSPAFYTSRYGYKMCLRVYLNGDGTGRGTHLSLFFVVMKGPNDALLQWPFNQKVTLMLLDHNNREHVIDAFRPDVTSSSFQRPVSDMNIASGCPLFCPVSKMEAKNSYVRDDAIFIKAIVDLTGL", "assay": "yeast two-hybrid, b-gal activity", "description": "(§1) The yeast two-hybrid assay was used to determine the structural requirements for the interaction of TRIP with TRAF1 or TRAF2. […] Expression vectors encoding wild type TRIP or the indicated deletion mutants of TRIP fused to the transcription activation domain were cotransformed into yeast with plasmids expressing LexA DNA binding domain-TRAF1 or -TRAF2 fusion proteins. Inter-actions between fusion proteins were scored by measuring b-gal activity of yeast transformants. The \"+\" indicates average b-gal activity of three independent yeast transformants was higher than 1000 Miller units; and the \"−\" indicates average b-gal activity of three independent yeast transformants was about 100 Miller units, which was similar to that of negative controls (bait plasmid alone)."}, "[3]": {"molecular_target": "T3, LexA DNA binding domain-TRAF1 fusion protein (bait plasmid pEG202-TRAF1) (UniProt P0A7C2 1-202; P39428 1-409)", "T3 construct": "also called LexA-TRAF1", "T3 sequence (looked up)": "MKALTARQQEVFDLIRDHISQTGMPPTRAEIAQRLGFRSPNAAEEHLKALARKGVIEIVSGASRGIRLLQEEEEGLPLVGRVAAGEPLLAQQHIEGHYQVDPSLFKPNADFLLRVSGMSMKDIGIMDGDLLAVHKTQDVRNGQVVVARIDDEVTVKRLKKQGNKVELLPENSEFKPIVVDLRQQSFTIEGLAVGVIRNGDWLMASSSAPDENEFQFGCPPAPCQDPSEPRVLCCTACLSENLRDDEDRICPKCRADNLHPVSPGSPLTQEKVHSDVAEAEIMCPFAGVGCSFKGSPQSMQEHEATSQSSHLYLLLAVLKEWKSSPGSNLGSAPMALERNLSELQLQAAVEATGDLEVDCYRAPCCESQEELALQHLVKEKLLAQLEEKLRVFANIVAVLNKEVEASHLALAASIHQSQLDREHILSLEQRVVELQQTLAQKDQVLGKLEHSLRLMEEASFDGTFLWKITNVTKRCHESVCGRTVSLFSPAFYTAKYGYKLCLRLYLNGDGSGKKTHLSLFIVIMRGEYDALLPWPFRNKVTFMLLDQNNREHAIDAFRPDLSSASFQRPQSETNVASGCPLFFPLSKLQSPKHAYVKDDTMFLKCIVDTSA", "assay": "yeast two-hybrid, b-gal activity", "description": "as §1"}},
  "data": [
    {"binder": "HA epitope tagged-TRIP expressed in 293 cells (other, not shown: small tags and cut ends, also called HA-TRIP) MPILSLCTICSDFFDHSRDVAAIHCGHTFHLQCLIQWFETAPSRTCPQCRIQVGKKTIINKLFFDLAQEEENVLDAEFLKNELDSVKAQLSQKDREKRDSQAIIDTLRDTLEERNATVESLQNALNKAEMLCSTLKKQMKFLEQRQDETKQAREEAHRLKCKMKTMEQIELLLQSQRSEVEEMIRDMGVGQSAVEQLAVYCVSLKKEYENLKEARKATGELADRLKKDLVSSRSKLKTLNTELDQAKLELRSAQKDLQSADQEITSLRKKSDDPPGNLEPASATNETVSRLVFESPAPVEMMNPRLHQPPFGDEIDLNTTFDVNTPPTQTSGSQHCLPKKLCLERARSPMQNVLKKVHKVSKPESQLSLGGQRCVGELDEELAGAFPLFIRNAVLGQKQPNRTTAESRSSTDVVRIGFDGLGGRTKFIQPRDTTIIRPVPVKSKAKSKQKVRIKTVSSASQPKLDTFLCQ", "values": [
      {"measurement": "binding result", "setting": "[1]", "value": "no binding"}
    ]},
    {"binder": "mutant TRIP lacking the N-terminal RING finger and the coiled-coil domain (residues 275-470) fused to the transcription activation domain (other, not shown: large carriers) PGNLEPASATNETVSRLVFESPAPVEMMNPRLHQPPFGDEIDLNTTFDVNTPPTQTSGSQHCLPKKLCLERARSPMQNVLKKVHKVSKPESQLSLGGQRCVGELDEELAGAFPLFIRNAVLGQKQPNRTTAESRSSTDVVRIGFDGLGGRTKFIQPRDTTIIRPVPVKSKAKSKQKVRIKTVSSASQPKLDTFLCQ", "values": [
      {"measurement": "binding result", "setting": "[2]", "value": "no binding"},
      {"measurement": "binding result", "setting": "[3]", "value": "no binding"}
    ]}
  ]
}
